Usually Kd stands for the equilibrium constant for the complex coming apart. Read a high Kd as lower affinity.

The target of the experiment is hFZD7 (Homo sapiens (Human), UniProt O75084). In words: SPR equilibrium, Norrin immobilised, monomeric CRD analyte.

B1: Norrin (protein)
chain 1: DSDPRRCMRHHYVDSISHPLYKCSSKMVLLARCEGHCSQASRSEPLVSFSTVLKQPFRSSCHCCRPQTSKLKALRLRCSGGMRLTATYRYILSCHCEECNS
chain 2: DSDPRRCMRHHYVDSISHPLYKCSSKMVLLARCEGHCSQASRSEPLVSFSTVLKQPFRSSCHCCRPQTSKLKALRLRCSGGMRLTATYRYILSCHCEECNS
In turn, B1 returned a Kd of more than 100 µM.

(Values after article PMC4497409 (2015).)
